Laboratory results published in IntAct's records for PubMed 31712417.

Biological target: if4e_human EIF4E (UniProt P06730)
Sequence (P06730 whole entry): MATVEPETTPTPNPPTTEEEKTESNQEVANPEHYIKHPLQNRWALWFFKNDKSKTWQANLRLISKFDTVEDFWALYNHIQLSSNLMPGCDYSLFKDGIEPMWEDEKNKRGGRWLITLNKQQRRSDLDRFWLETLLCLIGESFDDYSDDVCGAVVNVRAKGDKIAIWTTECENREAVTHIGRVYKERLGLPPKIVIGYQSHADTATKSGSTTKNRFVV

Substance: Genome polyprotein (Potato virus Y (strain N)), P18247 E1941K;E1945K
- effect of a mutation on the interaction: with no effect

Substance: Genome polyprotein (Potato virus Y (strain N)), P18247 E1929K;E1930K
- effect of a mutation on the interaction: with no effect

Substance: Genome polyprotein (Potato virus Y (strain N)), P18247 V1951G;E1952K
- effect of a mutation on the interaction: decreasing interaction

Substance: Genome polyprotein (Potato virus Y (strain N)), P18247 M1958A;Q1959A
- effect of a mutation on the interaction: decreasing interaction

Substance: Genome polyprotein (Potato virus Y (strain N)), P18247 D1954A;D1955A;E1957A
- effect of a mutation on the interaction: decreasing interaction

Substance: Genome polyprotein (Potato virus Y (strain N)), P18247 L1961G
- effect of a mutation on the interaction: decreasing interaction

Substance: Genome polyprotein (Potato virus Y (strain N)), P18247 D1935K
- effect of a mutation on the interaction: with no effect

Substance: Genome polyprotein (Potato virus Y (strain N)), P18247 D1954A;D1955A;Q1959A
- effect of a mutation on the interaction: decreasing interaction
